# Data reported in US20080267976A1.
# Molecular target: V158 FcγRIIIa (UniProt P08637)
# Test: competition AlphaScreen
# Chain of V158 FcγRIIIa (P08637 17-208 F176V): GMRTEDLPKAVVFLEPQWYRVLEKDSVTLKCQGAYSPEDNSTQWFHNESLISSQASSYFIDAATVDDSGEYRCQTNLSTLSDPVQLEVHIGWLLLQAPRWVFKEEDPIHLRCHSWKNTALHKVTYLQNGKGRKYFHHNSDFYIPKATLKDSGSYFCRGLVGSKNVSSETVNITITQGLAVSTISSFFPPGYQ
row,IC50,Substance
1,5.1 nM,S239D/I332E H3.69_L3.71 AC10 IgG1
2,52 nM,S239D/I332E/A330Y H3.69_V2_L3.71 AC10 IgG(1/2) ELLGG
3,4 nM,S239D/I332E/A330Y/K326E H3.69_V2_L3.71 AC10 IgG(1/2) ELLGG
4,0.882 nM,S239D/I332E/H268E H3.69_V2_L3.71 AC10 IgG(1/2) ELLGG
5,10.7 nM,S239D/I332E/K246H/S324I H3.69_V2_L3.71 AC10 IgG(1/2) ELLGG
6,5.79 nM,S239D/I332E/K246H/T260H H3.69_V2_L3.71 AC10 IgG(1/2) ELLGG
7,5.26 nM,S239D/I332E/K326T H3.69_V2_L3.71 AC10 IgG(1/2) ELLGG
8,1.28 nM,S239D/I332E/S298A H3.69_V2_L3.71 AC10 IgG(1/2) ELLGG
9,8.93 nM,S239D/I332E/S324G H3.69_V2_L3.71 AC10 IgG(1/2) ELLGG

# Molecular target: V158 FcγRIIIa (UniProt P08637)
# Test: competition AlphaScreen; second row
row,IC50,Substance
1,0.531 nM,S239D/I332E H3.69_L3.71 AC10 IgG1
